Results taken from US20190153059A1 (ADEPTHERA, published 2019).
* marks the point of attachment. Palmitoyl = CCCCCCCCCCCCCCCC(=O)*; miniPEG = mini-PEG spacer unit

B1: SEQ ID NO: 122 (peptide)
peptide: Palmitoyl-KVQKLAHQIYSAPVDPSSPHSY-NH2
B2: SEQ ID NO: 114 (peptide)
peptide: MiniPEG-KVQKLAHQIYSAPVDPSSPHSY-NH2
modifications: also: K(Pal), Lys not given here
B3: SEQ ID NO: 144 (peptide)
peptide: Ac-NFVPTNVGPFAF-NH2
B4: SEQ ID NO: 120 (peptide)
peptide: Palmitoyl-KVQNLSHRLWQLMGPAGSAPVDPSSPHSY-NH2
B5: SEQ ID NO: 141 (peptide)
peptide: Palmitoyl-KVQNLSAPVDPSSPHSY-NH2
B6: SEQ ID NO: 78 (peptide)
peptide: miniPEG-K(Palmitoyl)VQKLAHQIYQFTDKDKDNSAPVDPSSPHSY-NH2
B7: SEQ ID NO: 123 (peptide)
peptide: Palmitoyl-KVQKLAHQISAPVDPSSPHSY-NH2
B8: SEQ ID NO: 76 (peptide)
peptide: Ac-TVQKLAHQIYQFTDKDKDNSAPVDPSSPHSY-NH2
B9: SEQ ID NO: 77 (peptide)
peptide: Palmitoyl-TVQKLAHQIYQFTDKDKDNSAPVDPSSPHSY-NH2
B10: SEQ ID NO: 125 (peptide)
peptide: Palmitoyl-KVQKLAHQIYQFTDKSAPVDPSSPHSY-NH2
B11: SEQ ID NO: 116 (peptide)
peptide: Ace-TVQKLAHRLWQLMGPDKDNVAPRSKISPQGY-NH2
B12: SEQ ID NO: 112 (peptide)
peptide: MiniPEG-KVQKLAHQIYQFTDKDSAPVDPSSPHSY-NH2
modifications: also: K(Pal), Lys not given here
B13: SEQ ID NO: 121 (peptide)
peptide: Palmitoyl-KVQKLAHQIYQFTDKDSAPVDPSSPHSY-NH2
B14: SEQ ID NO: 119 (peptide)
peptide: Palmitoyl-KVQKLAHQIYQFTDKDVAPRSKISPQGY-NH2
B15: SEQ ID NO: 124 (peptide)
peptide: Pal-KVQKLAHQSAPVDPSSPHSY-NH2
B16: SEQ ID NO: 146 (peptide)
peptide: YGGFLRRIRPKLKKVQKLSAPVDPSSPHSY
modifications: Ace- at N-terminus; miniPEG between YGGFLRRIRPKLK and K(Pal); K(Pal); -NH2
B17: SEQ ID NO: 145 (peptide)
peptide: YAGFLKVQKLSAPVDPSSPHSY
modifications: Ace- at N-terminus; (D-Ala) and (D-Leu) in Y(D-Ala)GF(D-Leu); miniPEG before K(Pal); K(Pal); -NH2

These binders were tested against CLR/RAMP2 receptor (UniProt Q16602 23-461; O60895 43-175, limits assumed) (assay: cell-based or functional assay).
Sequence of CLR/RAMP2 receptor (Q16602 23-461 limits assumed, chain 1 of 2): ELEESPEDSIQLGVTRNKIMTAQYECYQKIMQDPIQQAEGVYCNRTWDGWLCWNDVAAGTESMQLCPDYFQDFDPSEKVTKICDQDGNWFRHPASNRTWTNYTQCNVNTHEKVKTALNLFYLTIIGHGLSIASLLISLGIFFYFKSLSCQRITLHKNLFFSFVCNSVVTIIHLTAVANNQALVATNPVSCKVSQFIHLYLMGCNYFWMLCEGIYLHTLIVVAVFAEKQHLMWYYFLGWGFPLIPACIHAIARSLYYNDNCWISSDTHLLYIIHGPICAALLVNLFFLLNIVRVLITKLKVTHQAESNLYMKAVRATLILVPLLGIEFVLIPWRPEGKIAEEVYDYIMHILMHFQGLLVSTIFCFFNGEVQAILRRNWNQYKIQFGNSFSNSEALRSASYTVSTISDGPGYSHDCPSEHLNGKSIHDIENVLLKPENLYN
Sequence of CLR/RAMP2 receptor (O60895 43-175 limits assumed, chain 2 of 2): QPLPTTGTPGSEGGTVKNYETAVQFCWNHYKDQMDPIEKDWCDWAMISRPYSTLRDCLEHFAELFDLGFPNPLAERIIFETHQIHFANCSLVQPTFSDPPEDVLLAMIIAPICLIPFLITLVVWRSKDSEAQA

Row | CLR/RAMP2 IC50 [nM] | CLR/RAMP2 Max Activity (antagonist) | Binder
1 | 61 |  | B1
2 | 146 |  | B2
3 | > 10000 | 0 % of positive control | B3
4 | 85 |  | B4
5 |  | 14 % of positive control | B5
6 | 34 | 107 % of positive control | B6
7 | 50 |  | B7
8 | 289 |  | B8
9 | 47 |  | B9
10 | 7.1 |  | B10
11 | 7.3 |  | B11
12 | 5.3 |  | B12
13 | 4.9 |  | B13
14 | 0.6 |  | B14
15 |  | 103 % of positive control | B15

What follows are binders tested against CLR/RAMP1 receptor (UniProt Q16602 23-461; O60894 27-148, limits assumed) (assay: cell-based or functional assay).
Sequence of CLR/RAMP1 receptor (Q16602 23-461 limits assumed, chain 1 of 2): as the sequence (Q16602 23-461 limits assumed, chain 1 of 2) above
Sequence of CLR/RAMP1 receptor (O60894 27-148 limits assumed, chain 2 of 2): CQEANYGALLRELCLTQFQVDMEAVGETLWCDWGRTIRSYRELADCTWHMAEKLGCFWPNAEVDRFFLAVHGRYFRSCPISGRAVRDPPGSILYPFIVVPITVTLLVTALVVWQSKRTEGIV

Row | CLR/RAMP1 IC50 [nM] | CLR/RAMP1 Max Activity (antagonist) | Binder
16 | 7.3 |  | B1
17 | < 0.5 | 102 % of positive control | B16
18 | 4.8 |  | B2
19 | 5.8 |  | B4
20 | < 0.5 | 99 % of positive control | B17
21 |  | 43 % of positive control | B5
22 | 4.8 | 104 % of positive control | B6
23 | 4.7 |  | B7
24 | 1120 |  | B8
25 | 9.9 |  | B9
26 | 7 |  | B10
27 | 152 |  | B11
28 | 1.8 |  | B12
29 | 3.2 |  | B13
30 | 21 |  | B14
31 |  | 95 % of positive control | B15

The binders below were run against CLR/RAMP3 receptor (UniProt Q16602 23-461; O60896 24-148, limits assumed) (assay: cell-based or functional assay).
Sequence of CLR/RAMP3 receptor (Q16602 23-461 limits assumed, chain 1 of 2): as the sequence (Q16602 23-461 limits assumed, chain 1 of 2) above
Sequence of CLR/RAMP3 receptor (O60896 24-148 limits assumed, chain 2 of 2): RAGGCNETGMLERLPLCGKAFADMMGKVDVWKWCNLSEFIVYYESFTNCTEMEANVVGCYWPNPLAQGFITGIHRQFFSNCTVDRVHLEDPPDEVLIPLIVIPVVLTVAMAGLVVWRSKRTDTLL

Row | CLR/RAMP3 IC50 [nM] | CLR/RAMP3 Max Activity (antagonist) | Binder
32 | 4.1 |  | B1
33 | 8.4 |  | B2
34 | 9.2 |  | B4
35 | 0.8 | 101 % of positive control | B6
36 | 53 |  | B11
37 | 2.3 |  | B12
38 | 1.8 |  | B13
39 | 1.5 |  | B14
40 |  | 102 % of positive control | B15
